Laboratory results from US20240400689A1 (ANTENGENE BIOLOGICS, published 2024).
Where a chain is given by its changes, count along the chain named.

T1: mouse CD276 protein (mouse, UniProt Q8VE98 29-316)
T1 construct: whole, on cells; also called mCD276; CHO-S-mCD276
T1 sequence (looked up): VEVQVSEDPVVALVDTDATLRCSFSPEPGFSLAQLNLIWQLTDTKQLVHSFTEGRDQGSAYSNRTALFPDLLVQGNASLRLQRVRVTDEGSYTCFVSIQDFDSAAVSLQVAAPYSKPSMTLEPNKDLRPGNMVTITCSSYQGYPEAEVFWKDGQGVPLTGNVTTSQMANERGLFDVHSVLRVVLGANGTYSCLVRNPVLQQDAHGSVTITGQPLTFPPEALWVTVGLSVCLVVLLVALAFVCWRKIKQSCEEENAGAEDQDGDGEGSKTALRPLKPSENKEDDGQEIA

T2: human CD276 protein (human, UniProt Q5ZPR3 29-534)
T2 construct: whole, on cells; for SKOV3 and the other cancer lines the protein is the cells' own; also called B7-H3; B7H3
T2 sequence (looked up): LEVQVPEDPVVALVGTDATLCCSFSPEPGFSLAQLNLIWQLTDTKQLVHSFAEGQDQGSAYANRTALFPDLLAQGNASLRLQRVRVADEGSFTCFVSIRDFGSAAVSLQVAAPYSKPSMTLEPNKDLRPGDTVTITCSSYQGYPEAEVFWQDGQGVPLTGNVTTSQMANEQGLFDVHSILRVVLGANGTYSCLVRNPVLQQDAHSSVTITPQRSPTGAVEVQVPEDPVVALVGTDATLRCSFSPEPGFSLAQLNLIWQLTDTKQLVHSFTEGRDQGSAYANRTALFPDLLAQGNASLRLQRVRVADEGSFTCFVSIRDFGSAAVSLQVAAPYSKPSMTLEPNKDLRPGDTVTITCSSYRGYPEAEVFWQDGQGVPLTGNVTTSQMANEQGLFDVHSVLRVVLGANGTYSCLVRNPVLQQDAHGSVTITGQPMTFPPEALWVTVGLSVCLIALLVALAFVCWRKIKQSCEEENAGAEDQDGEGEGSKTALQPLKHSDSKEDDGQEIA

B1: 26-D2-D6-B12 (antibody, V domains shown)
VH: QIQLVQSGPELKKPGETVKISCKASGYIFRNYGMNWVKQAPGKGLKWMGWINSYTGKPTYVDDFKGRFAFSLETSASTAYLQINNLKNEDMATYFCARDDGYWYTMDYWGQGTSVTVSS
VL: DVVMTQTPLSLPVSLGDQASISCRSSQSLVHSNGHTYLHWYLQKPGQSPKLLIYKVSNRFSGVPDRFSGSGSGTDFTLKISRVEAEDLGVYFCSQSTHVPWTFGGGTKLEIK
notes: mouse monoclonal antibody (hybridoma)
B2: 21-B3-B1-H5 (antibody, V domains shown)
VH: B1 VH
VL: B1 VL
notes: as for B1
B3: 22-E11-C3-F2 (antibody, V domains shown)
VH: QIQLVQSGPELKRPGETVKISCKASGYSFTNYGMNWVKQAPGKGLKWMGWINPYTGEPTYADDFKGRFAMSLETSASAAYLQINNLKNEDMATYFCGRDDGYHYTMNYWGQGTSVTVSS
VL: B1 VL with T7P, V30I, H35D, N58I, H98Y
notes: as for B1
B4: 11-G10-B4-B11 (antibody, V domains shown)
VH: DVQLQESGPGLVKPSQSLSLTCTVTGYSITSDYAWNWIRQFPGNKLEWMGYISYSGSTSYNPSLKSRISITRDTSKNQFFLQLNSVTTEDTATYYCARGGPWFAYWGQGTLVTVSA
VL: B1 VL with H35N, W101F, G105S
notes: as for B1
B5: 16-G3-D10-C10 (antibody, V domains shown)
VH: B1 VH with I28T, A40G, G44D, S53P, K57E, V61I, D62G, S77N, T78S, K87N
VL: B1 VL with L9P, S22P, H35I
notes: as for B1
B6: 11-C12-F4-F6 (antibody, V domains shown)
VH: B1 VH with I28T, Y32F, A40G, S53P, K57E, D62G
VL: B1 VL with L9P, S22P, H35I
notes: as for B1
B7: 20-F8-B5-G2 (human IgG1 chimeric antibody) (antibody, V domains shown)
VH: EVQLQESGPSLVKPSQTLSLTCSVTGDSITSAYWNWIRKFPGNKLEYMGYISNSGSTYYNPSLKSRISITRDTSKNQYYLQLNSVTTEDTGTYYCVRGERYYGYGAYWGQGTLVTVSA
VL: DIVMTQATPSVPVTPGESISISCRSSKSLLHSNGNTYLYWFLQRPGQSPQLLIYRMSNLASGVPDRFSGSGSGTAFTLRISRVEAEDVGVYYCMQHLEYPFTFGAGTKLELK
notes: human IgG1 chimeric antibody of the mouse clone
B8: 9-G2-H6-E4 (human IgG1 chimeric antibody) (antibody, V domains shown)
VH: EVQLQQSGPDLVKPGASVKISCKASGYSFTGYFMNWVKQRHGKSLEWIGYINPNNGDTIYNQKFKGKATLTVDKSSSTAHMELLSLTSEDSAVYYCGRGGLPFGALDYWGQGTSVTVSS
VL: DIVMSQSPSSLAVSVGEKVNMSCKSSQSLLYSRNQKNYLAWNQQKPGQSPKLLIYWASARESGVPDRFTGSGSGTDFTLTISSVKAEDLAAYYCQQYHSYPYTFGGGTKLELK
notes: as for B7
B9: 11-G10-B4-B11 (human IgG1 chimeric antibody) (antibody, V domains shown)
VH: B4 VH
VL: B1 VL with H35N, W101F, G105S
notes: as for B7
B10: 21-B3-B1-H5 (human IgG1 chimeric antibody) (antibody, V domains shown)
VH: B1 VH
VL: B1 VL
notes: as for B7
B11: 5-D1-G6-D9 (human IgG1 chimeric antibody) (antibody, V domains shown)
VH: EVQLQESGAELVKPGASVKLSCKTSGLTFSTNYISWLKQKPGQSLEWIAWIYGGNGGTSYNQRFTGKAQLTVDTSSSTAYMQFSSLTTEDSAIYYCTSHDYYGGPMDYWGQGTSVTVSS
VL: DIQMTQTTSSLSASLGDRVTISCRASQDISNYLNWYQQKPDGTVKLLIYFTSRLHSGVPSRFSASGSGTDYSLTISNLEQEDIATYFCQQTNTLPWTFGGGTKLEIK
B12: 2-A7-B10-A3 (human IgG1 chimeric antibody) (antibody, V domains shown)
VH: QVQLQQSGAELVRPGVSVKISCKGSGYTFTDYAMHWVKQSHAKSLEWIGVINTNYVNTSYNQKFKGKATMTVDKSSSTAFMELARLTSEDSAIYYCARGGKYGNYVFFFAYWGQGTLVTVSA
VL: B11 VL with F50Y, A64G, T91G, W96Y
B13: 14-E7-G9-D4 (human IgG1 chimeric antibody) (antibody, V domains shown)
VH: EVQLQQSGPELVKPGASVKMSCKASGYTFTNYIMHWVKQKPGQGLEWIGYINPYNDGIKYNEKFKGKATLTSDKSSSTAYMELSSLTSEDSAVYYCTRWGNYVFYYTMDYWGQGTSVTVSS
VL: QIVLSQSPAILSASPGEKVTMTCRASSSVSYMHWYQQKPGSSPKPWIYATSNLASGVPARFSGSGSGTSYSLTISRMEAEDAATYYCQQWSGNPPLTFGAGTKLELK
notes: as for B7
B14: 23-F10-G4-F11 (human IgG1 chimeric antibody) (antibody, V domains shown)
VH: EVQLQESGPDLVRPGALVKLSCKSSGFNIKDYPIHWVRQRPEQGLEWIGWFDPDNGNVIYDPRFQGKASITADTSSNTAYLQLNSLTSEDTAVYYCSSPYGAMDYWGQGTSVTVSS
VL: QIVLTQSPEIMSASPGEKVTMTCSASSSVSYIHWYQQKSGTSPKRWIYDTSKLASGVPARFSGSGSGTSYSLTIRSMEAEDAATYYCQQGSSNPRTFGGGTKLEIK
notes: as for B7
B15: 3-G7-D8-D3 (human IgG1 chimeric antibody) (antibody, V domains shown)
VH: QVQLQQSGAELARPGTSVKLSCKASGYTFTTYWIQWVKQRPGQGLEWIGAIYPGDGDTRYTQKFKGKATLTADKSSSTAYMQLSTLASEDSAVYYCARPYDGYYIDYPMDSWGQGTSVTVSS
VL: QIVLTQSPAIMSASPGEKVTMTCSASSRINYMHWYQQKPGTSPIIWIYDTSKLASGVPARFSGSGSGTSYSLTISSMEAEDAATYYCHQRSSYPFTFGSGTKLEIK
notes: as for B7
B16: 27-E7-D8-C7 (human IgG1 chimeric antibody) (antibody, V domains shown)
VH: EVQLQESGPELVRPGVSVKISCKGSGYTFTDYAMHWVKQSHAKSLEWIGVINTYSDNTNYNRKFKGKATMTVDKSSSTAYMELARLTSEDSAIYYCARGLLLRSQLGVYFDYWGQGTTLTVSS
VL: QIVLSQSPAILSASPGEKVTMTCRASSSVSYMHWYQQKPGSSPKPWIYATSNLASGVPARFSGSGSGTSYSLTISRVEAEDAATYYCQQWSSNPWTFGGGTKLEIK
notes: as for B7
B17: 9-E8-F9-C10 (human IgG1 chimeric antibody) (antibody, V domains shown)
VH: EVQLQQSGAELVRPGTSVKISCKASGYAFSDYWLSWVKQRPGHGLEWIGDICPGSGNIYYNERFKDKVILTADRSSSTAYLQFSSLTSEDSVVYFCTRLITRVIDYWGQGTSVTVST
VL: ENVLTQSPAIMSASPGEKVTMTCSASSSVNYMHWYQQKSSTSPKLWIYDTSKLSSGVPGRFSGSGSGNSYSLTISSMEAEDVATYYCFQGSGYPLTFGAGTKLELK

What follows are binders tested against T1, mouse CD276 protein (assay: FACS on CHO-S-mCD276 cells).
Procedure, shortened: (§1)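 Cross-reactivity checked by FACS on CHO-S cells stably over-expressing the respective CD276, with parental CHO-S as control. Cells incubated with subclone antibodies, bound primary detected with fluorescent dye-conjugated secondary antibody; read-out is median fluorescence intensity.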

FACS MFI | Binder
1310 | B1
1340 | B2
1670 | B3
2800 | B4
1320 | B5
1340 | B6

What follows are binders tested against T2, human CD276 protein (assay: FACS on CHO-S-hCD276 cells).
Procedure, shortened: as §1

FACS MFI | Binder
47500 | B1
71500 | B2
74300 | B3
32800 | B4
23200 | B5
41900 | B6

What follows are binders tested against T2, human CD276 protein (assay: cell-based or functional assay).

EC50 of antibody induced ADCC effect on SKOV3 [µg/mL] | Binder
3.01 | B7
13.6 | B8
17.3 | B9
0.648 | B10
1.55 | B11
4.21 | B12
0.252 | B13
0.137 | B14
0.00898 | B15
0.103 | B16
4.05 | B17

The binders below were run against T2, human CD276 protein (assay: FACS on SKOV3 cells).
Excerpt: Sequences of 31 mouse antibodies from Table 5 were selected to generate and produce human IgG1 chimeric antibodies. The binding affinity of these antibodies and bench mark antibody, Enoblituzumab (see U.S. Pat. No. 8,802,091, MGA271, specifically with a construct designated as hBRCA84D-2) and MGC018 (an antibody-drug-conjugate, in which the mAb MGA017 (human IgG1) is conjugated via a cleavable linker to the prodrug seco-DUocarmycin hydroxyBenzamide Azaindole (DUBA), an alkylating agent that can damage DNA in both dividing and non-dividing cells, thereby causing cell death) with human patient derived ovarian cancer cell line, SKOV3, was determined by FACS analysis.
1. Digested cells using Trypsin (1×); Centrifuged the harvested cells at 300 g for 3 min and discarding the supernatant. […] 2. Washed the cells 2 times with FACS buffer by centrifuging at 300 g for 3 min and discarding the supernatant. [0445] 3. […] Kept the cells in dark for FACS analysis.

EC50 [µg/mL] | MFI (Max) | Binder
1.11 | 3010 | B7
3.66 | 292 | B8
0.536 | 3750 | B9
0.723 | 2720 | B10
1.62 | 2730 | B13
4.42 | 6720 | B14
0.509 | 1210 | B15
0.542 | 4750 | B16

The binders below were run against T3, Macaca fascicularis CD276 (Macaca fascicularis) (assay: FACS on CHO-S-cynoCD276 cells).
T3 construct: whole, on cells; also called cynomolgus monkey CD276; cynoCD276
Procedure, shortened: as §1

FACS MFI | Binder
63100 | B1
20200 | B2
56500 | B3
26400 | B4
6190 | B5
5140 | B6
